# Measured values reported in US20020055130.
# Key:
# [1] = target: T1, purified recombinant MEKK1 NH2-terminal fusion protein (50 kD) (UniProt P53349)
# T1 sequence: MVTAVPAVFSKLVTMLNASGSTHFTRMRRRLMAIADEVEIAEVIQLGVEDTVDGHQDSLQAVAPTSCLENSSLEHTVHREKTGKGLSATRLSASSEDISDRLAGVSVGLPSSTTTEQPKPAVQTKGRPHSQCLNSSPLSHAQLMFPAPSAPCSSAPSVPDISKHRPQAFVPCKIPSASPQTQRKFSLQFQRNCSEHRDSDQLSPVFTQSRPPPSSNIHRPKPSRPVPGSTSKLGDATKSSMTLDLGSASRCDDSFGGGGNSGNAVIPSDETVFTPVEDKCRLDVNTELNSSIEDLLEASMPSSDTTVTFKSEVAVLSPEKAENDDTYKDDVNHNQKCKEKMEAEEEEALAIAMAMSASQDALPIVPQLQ
# [2] = system: purified recombinant catalytically inactive MEK-1
substance,measurement,setting,value
"98 kD MEKK protein (98 kD MEKK1) of PC12, Rat1a, NIH3T3 and Swiss3T3 cells",phosphorylation of the MEKK1 NH2-terminal fusion protein by immunoprecipitates (in vitro kinase assay),[1],MEKK1 immunoprecipitated from lysates of EGF-stimulated and unstimulated PC12 cells robustly phosphorylated the inert 50 kD MEKK1 NH2-fusion protein
same,phosphorylation of kinase inactive MEK-1 by Mono Q fractions (in vitro kinase assay),[2],Fractions 10-14 of lysate from PC 12 cells treated with EGF phosphorylated MEK-1
